Literature values, collected in PMC7855784.

Target: HER2 ECD (Homo sapiens) (UniProt P04626)

## PEPD (from UniProt P12955)
  Kd: 7.3 nM
